In US20140378663A1:

Molecular target: T1, CD20 antigen on Raji lymphoblastoid B cells (UniProt P11836)
T1 sequence (looked up): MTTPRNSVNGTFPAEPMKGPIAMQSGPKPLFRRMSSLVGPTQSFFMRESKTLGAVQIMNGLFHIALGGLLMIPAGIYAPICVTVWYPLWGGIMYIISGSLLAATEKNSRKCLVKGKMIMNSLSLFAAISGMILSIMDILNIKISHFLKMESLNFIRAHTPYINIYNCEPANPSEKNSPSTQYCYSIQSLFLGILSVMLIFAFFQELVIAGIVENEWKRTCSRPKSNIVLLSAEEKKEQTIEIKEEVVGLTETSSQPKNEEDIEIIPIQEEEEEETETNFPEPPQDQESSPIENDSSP
Test: flow cytometry on Raji cells

- Ag binding MFI (Arbitrary Unit): 123
B1: R603 chimeric anti-CD20 antibody (LFB-R603), IgG1 with wild-type Fc (antibody, INN chains, looked up, V domains shown, part only)
VH: QAYLQQSGAELVRPGASVKMSCKASGYTFTSYNMHWVKQTPRQGLEWIGGIYPGNGDTSYNQKFKGKATLTVGKSSSTAYMQLSSLTSEDSAVYFCARYDYNYAMDYWGQGTSVTVSS
VL: QIVLSQSPAILSASPGEKVTMTCRASSSVSYMHWYQQKPGSSPKPWIYATSNLASGVPARFSGSGSGTSYSFTISRVEAEDAATYYCQQWTFNPPTFGGGTRLEIK
modifications: IgG1
